The results in this text go back to paper PMC8646042.

The target in this experiment is T1, endogenous IRF3 (human (endogenous in 293T)), Q14653.
T1 chain: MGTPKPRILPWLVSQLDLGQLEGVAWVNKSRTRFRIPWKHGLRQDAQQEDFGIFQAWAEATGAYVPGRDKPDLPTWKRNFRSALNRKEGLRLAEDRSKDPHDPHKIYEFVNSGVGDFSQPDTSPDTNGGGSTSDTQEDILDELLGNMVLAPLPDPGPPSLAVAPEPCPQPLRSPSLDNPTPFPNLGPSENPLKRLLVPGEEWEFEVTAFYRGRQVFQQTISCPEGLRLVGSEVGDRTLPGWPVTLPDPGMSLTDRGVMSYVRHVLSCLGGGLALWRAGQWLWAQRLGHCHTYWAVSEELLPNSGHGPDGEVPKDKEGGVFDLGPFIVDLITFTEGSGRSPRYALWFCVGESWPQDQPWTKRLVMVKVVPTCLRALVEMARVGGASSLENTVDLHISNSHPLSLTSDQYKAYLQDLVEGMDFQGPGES
Nature of the experiment: native gel or EMSA; Native PAGE of lysates of 293T or MCF7 cells and western blot with anti-IRF3; SeV infection for 12 h or MAVS transfection; N4BP3 overexpressed, knocked down or knocked out. The conditions noted are these: remark: other sources report otherwise. On the technique in general: Mobility shift assays separate free from complexed probe on a gel.

B1: endogenous IRF3, Q14653 1-427 (natural protein)
chain: MGTPKPRILPWLVSQLDLGQLEGVAWVNKSRTRFRIPWKHGLRQDAQQEDFGIFQAWAEATGAYVPGRDKPDLPTWKRNFRSALNRKEGLRLAEDRSKDPHDPHKIYEFVNSGVGDFSQPDTSPDTNGGGSTSDTQEDILDELLGNMVLAPLPDPGPPSLAVAPEPCPQPLRSPSLDNPTPFPNLGPSENPLKRLLVPGEEWEFEVTAFYRGRQVFQQTISCPEGLRLVGSEVGDRTLPGWPVTLPDPGMSLTDRGVMSYVRHVLSCLGGGLALWRAGQWLWAQRLGHCHTYWAVSEELLPNSGHGPDGEVPKDKEGGVFDLGPFIVDLITFTEGSGRSPRYALWFCVGESWPQDQPWTKRLVMVKVVPTCLRALVEMARVGGASSLENTVDLHISNSHPLSLTSDQYKAYLQDLVEGMDFQGPGES
In general, stoichiometry N refers to the number of molecules, sites or subunits per partner or assembly. For the molecule B1, the stoichiometry N was found to be 2.
